In the experiment the target is Factor X (FX) (Homo sapiens (Human)) (UniProt P00742).

The record followed here is patent US20090291890A1 (published 2009).

Changes are numbered by the printed parent chain. Numbers in names are those of the source.

Chain of Factor X (FX) (Homo sapiens (Human)) (P00742 41-488 limits assumed): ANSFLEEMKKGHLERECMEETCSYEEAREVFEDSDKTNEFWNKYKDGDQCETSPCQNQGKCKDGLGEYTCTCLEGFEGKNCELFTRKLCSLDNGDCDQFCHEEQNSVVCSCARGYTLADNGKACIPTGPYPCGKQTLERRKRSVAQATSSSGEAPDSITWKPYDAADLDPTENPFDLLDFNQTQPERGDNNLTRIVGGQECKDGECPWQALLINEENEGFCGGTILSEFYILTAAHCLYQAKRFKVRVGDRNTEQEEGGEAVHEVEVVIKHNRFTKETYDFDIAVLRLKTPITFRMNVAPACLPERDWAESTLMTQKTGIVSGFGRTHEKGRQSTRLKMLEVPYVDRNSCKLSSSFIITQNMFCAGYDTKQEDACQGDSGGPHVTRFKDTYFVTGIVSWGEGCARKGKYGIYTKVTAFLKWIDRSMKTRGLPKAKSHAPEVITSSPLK

B1: FVIIa variant S103S111delins… (enzyme)
chain: ANAFLEELRPGSLERECKEEQCSFEEAREIFKDAERTKLFWISYSDGDQCASSPCQNGGSCKDQLQSYICFCLPAFEGRNCETHKDDQLICVNENGGCEQYCSFGRGDIRNVCRCHEGYSLLADGVSCTPTVEYPCGKIPILEKRNASKPQGRIVGGKVCPKGECPWQVLLLVNGAQLCGGTLINTIWVVSAAHCFDKIKNWRNLIAVLGEHDLSEHDGDEQSRRVAQVIIPSTYVPGTTNHDIALLRLHQPVVLTDHVVPLCLPERTFSERTLAFVRFSLVSGWGQLLDRGATALELMVLNVPRLMTQDCLQQSRKVGDSPNITEYMFCAGYSDGSKDSCKGDSGGPHATHYRGTWYLTGIVSWGQGCATVGHFGVYTRVSQYIEWLQKLMRSEPRPGVLLRAPFP
Consider B1, for which the kcat/KM, TF-Dependent Indirect Assay was 4.83e+07 M⁻¹ s⁻¹.

B2: FVIIa variant P406ins… (enzyme)
chain: ANAFLEELRPGSLERECKEEQCSFEEAREIFKDAERTKLFWISYSDGDQCASSPCQNGGSCKDQLQSYICFCLPAFEGRNCETHKDDQLICVNENGGCEQYCSDHTGTKRSCRCHEGYSLLADGVSCTPTVEYPCGKIPILEKRNASKPQGRIVGGKVCPKGECPWQVLLLVNGAQLCGGTLINTIWVVSAAHCFDKIKNWRNLIAVLGEHDLSEHDGDEQSRRVAQVIIPSTYVPGTTNHDIALLRLHQPVVLTDHVVPLCLPERTFSERTLAFVRFSLVSGWGQLLDRGATALELMVLNVPRLMTQDCLQQSRKVGDSPNITEYMFCAGYSDGSKDSCKGDSGGPHATHYRGTWYLTGIVSWGQGCATVGHFGVYTRVSQYIEWLQKLMRSEPRPGVLLRAPFPCSFGRGDIRNVC
Regarding B2, the kcat/KM, TF-Dependent Indirect Assay worked out at 6.16e+07 M⁻¹ s⁻¹.

B3: FVIIa variant P406ins… (enzyme)
chain: ANAFLEELRPGSLERECKEEQCSFEEAREIFKDAERTKLFWISYSDGDQCASSPCQNGGSCKDQLQSYICFCLPAFEGRNCETHKDDQLICVNENGGCEQYCSDHTGTKRSCRCHEGYSLLADGVSCTPTVEYPCGKIPILEKRNASKPQGRIVGGKVCPKGECPWQVLLLVNGAQLCGGTLINTIWVVSAAHCFDKIKNWRNLIAVLGEHDLSEHDGDEQSRRVAQVIIPSTYVPGTTNHDIALLRLHQPVVLTDHVVPLCLPERTFSERTLAFVRFSLVSGWGQLLDRGATALELMVLNVPRLMTQDCLQQSRKVGDSPNITEYMFCAGYSDGSKDSCKGDSGGPHATHYRGTWYLTGIVSWGQGCATVGHFGVYTRVSQYIEWLQKLMRSEPRPGVLLRAPFPGGGSCSFGRGDIRNVC
As to B3, the kcat/KM, TF-Dependent Indirect Assay came out at 7.47e+07 M⁻¹ s⁻¹.

B4: FVIIa variant K161A (enzyme)
chain: ANAFLEELRPGSLERECKEEQCSFEEAREIFKDAERTKLFWISYSDGDQCASSPCQNGGSCKDQLQSYICFCLPAFEGRNCETHKDDQLICVNENGGCEQYCSDHTGTKRSCRCHEGYSLLADGVSCTPTVEYPCGKIPILEKRNASKPQGRIVGGKVCPAGECPWQVLLLVNGAQLCGGTLINTIWVVSAAHCFDKIKNWRNLIAVLGEHDLSEHDGDEQSRRVAQVIIPSTYVPGTTNHDIALLRLHQPVVLTDHVVPLCLPERTFSERTLAFVRFSLVSGWGQLLDRGATALELMVLNVPRLMTQDCLQQSRKVGDSPNITEYMFCAGYSDGSKDSCKGDSGGPHATHYRGTWYLTGIVSWGQGCATVGHFGVYTRVSQYIEWLQKLMRSEPRPGVLLRAPFP
As for B4, the kcat/KM, TF-Dependent Indirect Assay was found to be 4.22e+07 M⁻¹ s⁻¹.

B5: FVIIa variant A175S (enzyme)
chain: B4 chain with A161K, A175S
Turning to B5, the kcat/KM, TF-Dependent Indirect Assay was 3.32e+07 M⁻¹ s⁻¹.

B6: FVIIa variant H373F (enzyme)
chain: B4 chain with A161K, H373F
Regarding B6, the kcat/KM, TF-Dependent Indirect Assay amounted to 5.11e+07 M⁻¹ s⁻¹.

B7: FVIIa variant K161V (enzyme)
chain: B4 chain with A161V
Turning to B7, the kcat/KM, TF-Dependent Indirect Assay was determined as 5.45e+07 M⁻¹ s⁻¹.

B8: FVIIa variant Q286R/S222A/H257A (enzyme)
chain: B4 chain with A161K, S222A, H257A, Q286R
As to B8, the kcat/KM, TF-Dependent Indirect Assay came to 9.51e+07 M⁻¹ s⁻¹.

B9: FVIIa variant Q366E (enzyme)
chain: B4 chain with A161K, Q366E
Take B9: the kcat/KM, TF-Dependent Indirect Assay worked out at 4.77e+07 M⁻¹ s⁻¹.

B10: FVIIa variant Q366T (enzyme)
chain: B4 chain with A161K, Q366T
Turning to B10, the kcat/KM, TF-Dependent Indirect Assay came to 3.42e+07 M⁻¹ s⁻¹.

B11: FVIIa variant H373E (enzyme)
chain: B4 chain with A161K, H373E
As for B11, the kcat/KM, TF-Dependent Indirect Assay was determined as 2.79e+07 M⁻¹ s⁻¹.

B12: FVIIa variant Q366S (enzyme)
chain: B4 chain with A161K, Q366S
Turning to B12, the kcat/KM, TF-Dependent Indirect Assay was found to be 2.7e+07 M⁻¹ s⁻¹.

B13: FVIIa variant Q366D (enzyme)
chain: B4 chain with A161K, Q366D
Turning to B13, the kcat/KM, TF-Dependent Indirect Assay came to 1.88e+07 M⁻¹ s⁻¹.

B14: FVIIa variant V158D/L287T/M298K (enzyme)
chain: B4 chain with V158D, A161K, L287T, M298K
Take B14: the kcat/KM, TF-Dependent Indirect Assay amounted to 4.48e+06 M⁻¹ s⁻¹.

B15: FVIIa variant H373D (enzyme)
chain: B4 chain with A161K, H373D
For B15, the kcat/KM, TF-Dependent Indirect Assay came out at 1.79e+07 M⁻¹ s⁻¹.

B16: FVIIa variant V158T/L287T/M298K (enzyme)
chain: B4 chain with V158T, A161K, L287T, M298K
As for B16, the kcat/KM, TF-Dependent Indirect Assay was determined as 4.5e+06 M⁻¹ s⁻¹.

B17: FVIIa variant Q286R/H257A (enzyme)
chain: B4 chain with A161K, H257A, Q286R
Turning to B17, the kcat/KM, TF-Dependent Indirect Assay came out at 1.27e+08 M⁻¹ s⁻¹.

B18: FVIIa variant H373A (enzyme)
chain: B4 chain with A161K, H373A
In the case of B18, the kcat/KM, TF-Dependent Indirect Assay was 3.11e+07 M⁻¹ s⁻¹.

B19: FVIIa variant T130N/E132S (enzyme)
chain: B4 chain with T130N, E132S, A161K
Regarding B19, the kcat/KM, TF-Dependent Indirect Assay amounted to 6.35e+07 M⁻¹ s⁻¹.

B20: FVIIa variant A292N/A294S (enzyme)
chain: B4 chain with A161K, A292N, A294S
Turning to B20, the kcat/KM, TF-Dependent Indirect Assay came to 0 M⁻¹ s⁻¹.

B21: FVIIa variant R202S (enzyme)
chain: B4 chain with A161K, R202S
For B21, the kcat/KM, TF-Dependent Indirect Assay was 2.57e+07 M⁻¹ s⁻¹.

B22: FVIIa variant E394N/P395A/R396S (enzyme)
chain: B4 chain with A161K, E394N, P395A, R396S
Take B22: the kcat/KM, TF-Dependent Indirect Assay was 5.32e+07 M⁻¹ s⁻¹.

B23: FVIIa variant Q286R/S222A (enzyme)
chain: B4 chain with A161K, S222A, Q286R
For B23, the kcat/KM, TF-Dependent Indirect Assay is 1.42e+08 M⁻¹ s⁻¹.

B24: FVIIa variant A122N/G124S/E394N/P395A/R396S (enzyme)
chain: B4 chain with A122N, G124S, A161K, E394N, P395A, R396S
As for B24, the kcat/KM, TF-Dependent Indirect Assay was found to be 4.88e+07 M⁻¹ s⁻¹.

B25: FVIIa variant G318N (enzyme)
chain: B4 chain with A161K, G318N
In the case of B25, the kcat/KM, TF-Dependent Indirect Assay amounted to 5.5e+07 M⁻¹ s⁻¹.

B26: FVIIa variant S52A (enzyme)
chain: B4 chain with S52A, A161K
Turning to B26, the kcat/KM, TF-Dependent Indirect Assay amounted to 4.66e+07 M⁻¹ s⁻¹.

B27: FVIIa variant A122N/G124S (enzyme)
chain: B4 chain with A122N, G124S, A161K
Turning to B27, the kcat/KM, TF-Dependent Indirect Assay worked out at 5.27e+07 M⁻¹ s⁻¹.

B28: FVIIa variant Q366N (enzyme)
chain: B4 chain with A161K, Q366N
Take B28: the kcat/KM, TF-Dependent Indirect Assay turned out to be 5.64e+07 M⁻¹ s⁻¹.

B29: FVIIa variant S60A (enzyme)
chain: B4 chain with S60A, A161K
For B29, the kcat/KM, TF-Dependent Indirect Assay came out at 5.15e+07 M⁻¹ s⁻¹.

B30: FVIIa variant H373S (enzyme)
chain: B4 chain with A161K, H373S
Consider B30, for which the kcat/KM, TF-Dependent Indirect Assay stood at 2.75e+07 M⁻¹ s⁻¹.

B31: FVIIa variant Q366V (enzyme)
chain: B4 chain with A161K, Q366V
Take B31: the kcat/KM, TF-Dependent Indirect Assay stood at 6.59e+07 M⁻¹ s⁻¹.

B32: FVIIa variant S222A/Gla Swap FIX (enzyme)
chain: YNSGKLEEFVQGNLERECMEEKCSFEEAREVFENTERTTEFWKQYSDGDQCASSPCQNGGSCKDQLQSYICFCLPAFEGRNCETHKDDQLICVNENGGCEQYCSDHTGTKRSCRCHEGYSLLADGVSCTPTVEYPCGKIPILEKRNASKPQGRIVGGKVCPKGECPWQVLLLVNGAQLCGGTLINTIWVVSAAHCFDKIKNWRNLIAVLGEHDLSEHDGDEQARRVAQVIIPSTYVPGTTNHDIALLRLHQPVVLTDHVVPLCLPERTFSERTLAFVRFSLVSGWGQLLDRGATALELMVLNVPRLMTQDCLQQSRKVGDSPNITEYMFCAGYSDGSKDSCKGDSGGPHATHYRGTWYLTGIVSWGQGCATVGHFGVYTRVSQYIEWLQKLMRSEPRPGVLLRAPFP
On to B32, for which the kcat/KM, TF-Dependent Indirect Assay was found to be 6.55e+07 M⁻¹ s⁻¹.

B33: FVIIa variant Q286R/Gla Swap FIX (enzyme)
chain: B32 chain with A223S, Q287R
As to B33, the kcat/KM, TF-Dependent Indirect Assay worked out at 1.11e+08 M⁻¹ s⁻¹.

B34: FVIIa variant H257A/Gla Swap FIX (enzyme)
chain: B32 chain with A223S, H258A
In the case of B34, the kcat/KM, TF-Dependent Indirect Assay worked out at 6.45e+07 M⁻¹ s⁻¹.

B35: FVIIa variant S222A/H257A/Gla Swap FIX (enzyme)
chain: B32 chain with H258A
B35: the kcat/KM, TF-Dependent Indirect Assay came to 5.77e+07 M⁻¹ s⁻¹.
